The values that follow come from the Immune Epitope Database (IEDB).

The target of one assay is HLA-C*03:03. Put plainly: IEDB peptide-MHC binding, purified MHC/direct/fluorescence; filed as Kd, often an IC50 or EC50 that approximates it; ≥ and ≤ were set here for values at or beyond the usual limits of such assays. The following applies: source organism: Clostridium novyi NT.
A further assay addresses HLA-C*05:01. The description is as above. Conditions: source organism: Clostridium novyi NT.
The next assay addresses HLA-B*45:06. The assay is described as follows: IEDB peptide-MHC binding, purified MHC/competitive/fluorescence; filed as Kd, often an IC50 or EC50 that approximates it; ≥ and ≤ were set here for values at or beyond the usual limits of such assays. Conditions: source organism: Clostridium novyi NT.
In the next assay the target is HLA-B*27:20. The assay is described as above. The following applies: source organism: Clostridium novyi NT.
The target in the next assay is HLA-B*15:42. The assay is described as above. Conditions: source organism: Clostridium novyi NT.
A further assay has as its target HLA-B*83:01. The assay is described as above. The following applies: source organism: Clostridium novyi NT.
Assay [1] has as its target HLA-B*46:01. The description is as above. The following applies: source organism: Clostridium novyi NT.
For a further assay, the target named is HLA-C*06:02. The assay is described as above. The following applies: source organism: Clostridium novyi NT.
In a further assay the target is HLA-C*14:02. The description is as above. Conditions: source organism: Clostridium novyi NT.
A further assay deals with HLA-A*32:07. The description is as above. Conditions: source organism: Clostridium novyi NT.
The target of another assay is HLA-A*32:15. The assay is described as above. Conditions: source organism: Clostridium novyi NT.
For the next assay, the target named is HLA-A*68:23. Described as above. The following applies: source organism: Clostridium novyi NT.
A further assay has as its target HLA-A*02:03. The assay is described as follows: IEDB peptide-MHC binding, purified MHC/direct/fluorescence; filed as Kd, often an IC50 or EC50 that approximates it; ≥ and ≤ were set here for values at or beyond the usual limits of such assays.
In the next assay the target is HLA-A*02:06. The description is as above.
The next assay addresses HLA-A*01:01. The assay is described as above. Conditions: source organism: Influenza A virus (A/camel/Mongolia/1982(H1N1)).
Another assay addresses HLA-A*02:01. The description is as above.
For a further assay, the target named is HLA-A*24:02. The description is as above. Conditions: source organism: Influenza A virus (A/camel/Mongolia/1982(H1N1)).
For another assay, the target named is HLA-B*15:01. The description is as above.
In another assay the target is HLA-B*27:05. The assay is described as above. Conditions: source organism: Influenza A virus (A/camel/Mongolia/1982(H1N1)).
The target in the next assay is HLA-B*18:01. Described as above.
For a further assay, the target named is HLA-B*40:01. The description is as above. The following applies: source organism: Influenza A virus (A/camel/Mongolia/1982(H1N1)).
A further assay deals with HLA-A*02:11. The assay is described as above.
The target in the next assay is HLA-B*58:01. Described as above. The following applies: source organism: Influenza A virus (A/camel/Mongolia/1982(H1N1)).
In another assay the target is HLA-A*11:01. Described as above. Conditions: source organism: Influenza A virus (A/camel/Mongolia/1982(H1N1)).
The next assay has as its target HLA-B*07:02. The assay is described as above. The following applies: source organism: Influenza A virus (A/camel/Mongolia/1982(H1N1)).
For another assay, the target named is HLA-B*44:02. The assay is described as above. Conditions: source organism: Influenza A virus (A/camel/Mongolia/1982(H1N1)).
The target of assay [2] is HLA-B*46:01. Described as above.
Another assay deals with HLA-A*31:01. Described as above. Conditions: source organism: Influenza A virus (A/camel/Mongolia/1982(H1N1)).
For another assay, the target named is HLA-A*03:01. The description is as above.
In another assay the target is HLA-B*08:01. Described as above. The following applies: source organism: Influenza A virus (A/camel/Mongolia/1982(H1N1)).
The next assay concerns the target HLA-B*15:09. The description is as above. The following applies: source organism: Influenza A virus (A/Taiwan/2/2006(H1N1)).
The target in another assay is HLA-A*02:12. Described as above.
Another assay deals with HLA-B*15:17. Described as above.
The next assay has as its target HLA-B*27:03. The assay is described as above.
The target of another assay is HLA-B*57:01. Described as above.
A further assay has as its target HLA-A*26:01. The assay is described as above.
The next assay has as its target HLA-B*51:01. Described as above.
For a further assay, the target named is HLA-A*02:19. Described as above.
A further assay concerns the target HLA-B*39:01. Described as above.
In a further assay the target is HLA-A*24:03. Described as above. Conditions: source organism: Yersinia enterocolitica subsp. enterocolitica 8081.
A further assay deals with HLA-A*29:02. The description is as above. The following applies: source organism: Bacillus cereus H3081.97.
The next assay deals with HLA-A*02:16. The assay is described as above. Conditions: source organism: Bacillus cereus H3081.97.
The mark [3] stands for this setting: source organism: Influenza A virus (A/Taiwan/2/2006(H1N1)).
Where [4] appears, read: source organism: Influenza A virus (A/camel/Mongolia/1982(H1N1)).
The mark [5] stands for this setting: source organism: Cryptosporidium parvum Iowa II.
Setting [6] is: source organism: Yersinia enterocolitica subsp. enterocolitica 8081.
Where [7] appears, read: source organism: Bacillus cereus H3081.97.

ASMDNTSPM: the Kd with HLA-C*03:03 was at most 0.001 µM; with HLA-C*05:01, at least 20 µM; in the assay with HLA-B*45:06, at least 5 µM; with HLA-B*27:20, 0.239 µM; with HLA-B*15:42 it was at least 5 µM; with HLA-B*83:01, 0.147 µM. Further, the dissociation constant Kd with HLA-B*46:01 [1] amounted to 0.0086 µM; with HLA-C*06:02, 0.57 µM; in the assay with HLA-C*14:02 it was 0.0364 µM; with HLA-A*32:07 it was 0.0269 µM; with HLA-A*32:15, 0.223 µM; with HLA-A*68:23 it was 0.0297 µM.
In the case of ELDEIGEDV, the dissociation constant (Kd) with HLA-A*02:03 (setting [3]) was at least 5 µM; in the assay with HLA-A*02:06 (setting [3]), at least 20 µM; in the assay with HLA-A*01:01, at least 20 µM; in the assay with HLA-A*02:01 (source organism: Influenza A virus (A/Puerto Rico/8/34/Mount Sinai(H1N1))), 2.44 µM; with HLA-A*24:02 it was at least 20 µM; in the assay with HLA-B*15:01 (setting [4]), at least 20 µM. In addition, the Kd with HLA-B*27:05 was at least 20 µM; with HLA-B*18:01 (setting [4]) it was at least 20 µM; with HLA-B*40:01, at least 20 µM; with HLA-A*02:11 (setting [3]), 0.134 µM; with HLA-B*58:01, at least 20 µM; in the assay with HLA-A*11:01 it was at least 20 µM. The Kd with HLA-B*07:02, with HLA-B*44:02, with HLA-B*46:01 [2] (setting [4]), with HLA-A*31:01, with HLA-A*03:01 (setting [4]) and with HLA-B*08:01 was at least 20 µM throughout. Moreover, the Kd in the assay with HLA-B*15:09 is at least 20 µM; with HLA-A*02:12 (setting [3]), 1.5 µM.
For KQMSQPYAV, the Kd in the assay with HLA-A*02:06 (setting [5]) is at most 0.001 µM; with HLA-A*02:01 (setting [5]), 0.002 µM; with HLA-B*15:17 (setting [5]), at least 20 µM; in the assay with HLA-B*46:01 [2] (setting [5]), at least 20 µM; with HLA-B*27:03 (setting [5]), at least 20 µM; with HLA-B*57:01 (setting [5]), at least 20 µM. Moreover, the Kd is at least 20 µM with HLA-A*03:01 (setting [5]), at least 20 µM with HLA-A*26:01 (setting [5]), at least 20 µM with HLA-B*51:01 (setting [5]) and at most 0.001 µM with HLA-A*02:12 (setting [5]).
Take YIYDGKVNY: the Kd in the assay with HLA-B*15:17 (setting [6]) was 0.003 µM; with HLA-B*18:01 (setting [6]), at least 20 µM; in the assay with HLA-A*02:19 (setting [6]) it was at least 20 µM; with HLA-A*02:11 (setting [6]), at least 20 µM; with HLA-B*39:01 (setting [6]), at least 20 µM; with HLA-B*27:03 (setting [6]), at least 20 µM. Further, the dissociation constant (Kd) with HLA-B*57:01 (setting [6]), with HLA-A*24:03 and with HLA-A*02:12 (setting [6]) was at least 20 µM each time.
Turning to YSTVRDLFL, the equilibrium dissociation constant (Kd) is at least 20 µM with HLA-A*02:03 (setting [7]); at least 20 µM with HLA-A*02:01 (setting [7]); at least 20 µM with HLA-A*29:02; at least 20 µM with HLA-B*15:01 (setting [7]); at most 0.001 µM with HLA-B*15:17 (setting [7]); at least 20 µM with HLA-B*18:01 (setting [7]). The Kd with HLA-A*02:19 (setting [7]), with HLA-A*02:11 (setting [7]), in the assay with HLA-B*46:01 [2] (setting [7]), with HLA-B*39:01 (setting [7]), with HLA-B*27:03 (setting [7]) and with HLA-B*57:01 (setting [7]) was at least 20 µM each time. Also, the dissociation constant (Kd) with HLA-A*03:01 (setting [7]), in the assay with HLA-A*26:01 (setting [7]), in the assay with HLA-B*51:01 (setting [7]), in the assay with HLA-A*02:16 and with HLA-A*02:12 (setting [7]) was at least 20 µM in each case.

In general, Kd refers to a measure of binding affinity in units of concentration. Lower therefore signals a tighter complex.
